The values that follow come from a protein production outcome set (Wang et al. 2014).

A short description of this data set: label from the status in PepcDB records.
On to “MDEYEDSQSPAPSYQYPKETLRKRQNSVQNSGGSVSSRFSRKSFKLDYRLEEDVTKSKKGKDGRFVNPWPTWKNISIPNVLRWLIMEKNHSGVPGSKEELDKELPVLKPYFVSDPEDAGVREAGLRVTWLGHATLMVEMDELIFLTDPMFSSRASPSQYMGPKRFRRPPCTISELPTIDAVLISHNHYDHLDYGSVLALNERFGSELRWFVPLGLLDWMQKCGCENVIELDWWEENCVPGHDKVTFVFTPSQHWCKRTLLDDNKVLWGSWSVLGPWSRFFFAGDTGYCPAFEEIGKRFGPFDLAAIPIGAYEPRWFMKYQHADPEDAVRIHIDLQTKRSVAIHWGTFALANEHYLEPPVKLNEALERYGLSCEDFFILKHGESRYLNTDDRAFEET”, for which the protein production entry is “failed”. “MKDTDETAFLNSLFMDFTSENELELFLKSLDEVWSEDLYSRLSAAGLIRHVISKVWNKEQHRISMVFEYDSKEGYQKCQEIIDKEFGITLKEKLKKFVFKIHNNRGVVVSEFIRST”: the protein production result was “not failed”. “MKTKPQAPHVDFYEKSELLHFLDCASKHENPQAFMFFRLLAFTGLRRGEALALQWSDINFETNELTVNKTQAVGKRWRTIIQTPKTNTSYRTIVLDPDTAQWLHKWKMTQARQCFELGFNANDPSQLVFTNQQNKLMSPSTVNYFNWSICKKYGLRHIKIHAFRHTFCTLAFEAHAGINEVSKTLGHADLKITEQIYLHVTKKQKNETASKLARYMSELLEHHHHHH”: the protein production entry was “not failed”. Next, “MSGEDEQQEQTIAEDLVVTKYKMGGDIANRVLRSLVEASSSGVSVLSLCEKGDAMIMEETGKIFKKEKEMKKGIAFPTSISVNNCVCHFSPLKSDQDYILKEGDLVKIDLGVHVDGFIANVAHTFVVDVAQGTQVTGRKADVIKAAHLCAEAALRLVKPGNQNTQVTEAWNKVAHSFNCTPIEGMLSHQLKQHVIDGEKTIIQNPTDQQKKDHEKAEFEVHEVYAVDVLVSSGEGKAKDAGQRTTIYKRDPSKQYGLKMKTSRAFFSEVERRFDAMPFTLRAFEDEKKARMGVVECAKHELLQPFNVLYEKEGEFVAQFKFTVLLMPNGPMRITSGPFEPDLYKSEMEVQDAELKALLQSSASRKTQKKKKKKASKTAENATSGETLEENEAGD”: “failed”.

Consider “MARFRDELLLASLIALAALILLRGLGNDSLGFPDADRILMDSVFLRDLLVDLPLADPIGYTKDYFVQYPALSIGYRPPFFPFVAALLQLLVGPEMWATRLALFGFVLVGVASSYFWIRRHYGPWPAWGATALWLTTPYLAQWGWYTMAELTVLSMALLAANLFDKYLAEGKPALLYWSVLAVALAAWTKQTALFLLPWFAAMALAEGRFLAILRRREAWIAAFGLGVLLAPLVAMTLMLGDLNLEQSVGGTNRWTLANWTVRLKTILHHLTPPLLALSVVGAIWAGLKRDRHGLPFALLIVVVYGVFSYISGKNDRYPIFWVPAFALFAVLPFHFLSQRLPAKATVPALALGVGVLAAYQGSLAFTKTPSYATGYKEAAAYVLDSSETPIVFVDAYNNGYFTYFMRALDQGRSMVVLRGDKLLSSSAINMATKVEVHAEGRQEIEEIFRSLGVSLIVVEERNYTGLDVHDELRRFLKTDSFELVQAIPIHSNRTVSVLADFPPLGGQDLLVYRYKDAKTLTSGVVSLRLPVVGQTLSVDMETMMERRRAHP”, for which the protein production entry is given as “failed”.

For “MEEEEARQVVIDNDLKKKIKETVKKILKRSSLLEITEIKAREEASSELNLDLSRDPYKIIVREAVDSFIEKAIMTIDTEMGKLHTQIVEDVDGEVTENATKTTTKKKKKKKAKKKVEEEESSPA”, the protein production entry was “failed”.

With “MKTRINYAKASPEAFKAVMALENYVQSSGLEHRFIHLIKLRASIINGCAFCVDMHVKESRHDGLSEQWINLMSVWRESPVYTEQERALLGWVDAVTKIAETGAPDDAFETLRAHFSDEEIVKITVAIGAINTWNRIAVGFRSQHPVEAAAKAA”, the protein production entry is “not failed”. For “MDGGDDGNLIIKKRFVSEAELDERRKRRQEEWEKVRKPEDPEECPEEVYDPRSLYERLQEQKDRKQQEYEEQFKFKNMVRGLDEDETNFLDEVSRQQELIEKQRREEELKELKEYRNNLKKVGISQENKKEVEKKLTVKPIETKNKFSQAKLLAGAVKHKSSESGNSVKRLKPDPEPDDKNQEPSSCKSLGNTSLSGPSIHCPSAAVCIGILPGLGAYSGSSDSESSSDSEGTINATGKIVSSIFRTNTFLEAP”, the protein production result is reported as “not failed”. For the sequence “MHLLVVEDDDIVRMLMVEVLDDLGYKVIEAEDATAALRVLEDPSQALALMMTDVGLPDMRGEELAGKARELRPLLPVLFASGYADSFNVPEGMHLIGKPFSIDQLRDTVVGILGTP”, the protein production entry is “failed”.
